Assay results published in FireProtDB (doi:10.1016/j.jmb.2009.04.075).
“And” between values parts separate entries of the source, which are not always exact repeats. Equal entries are not always repeated.

Settings: Saccharomyces cerevisiae (strain ATCC 204508 / S288c); pH 7; 25 °C; GdnHCl; CD; Tris 20 mM; NaCl 40 mM; reversible: Yes

Chain of Cytochrome c isoform 1 wild type, P00044 (P00044 whole entry, canonical isoform): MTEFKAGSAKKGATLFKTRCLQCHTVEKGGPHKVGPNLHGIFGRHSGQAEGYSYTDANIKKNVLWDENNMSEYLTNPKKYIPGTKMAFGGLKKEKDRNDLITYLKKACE

Substance: Cytochrome c isoform 1 wild type, P00044
- denaturant midpoint (higher = more stable): 0.49 M and 0.45 M
